This is an account of results in patent US7727960B2, “C5a receptor antagonists” (Jerini AG, priority 2003, dated 2010).

The labels stand for the following.
T1: human C5aR (CD88) (human, UniProt P21730 1-350)
T1 sequence (looked up): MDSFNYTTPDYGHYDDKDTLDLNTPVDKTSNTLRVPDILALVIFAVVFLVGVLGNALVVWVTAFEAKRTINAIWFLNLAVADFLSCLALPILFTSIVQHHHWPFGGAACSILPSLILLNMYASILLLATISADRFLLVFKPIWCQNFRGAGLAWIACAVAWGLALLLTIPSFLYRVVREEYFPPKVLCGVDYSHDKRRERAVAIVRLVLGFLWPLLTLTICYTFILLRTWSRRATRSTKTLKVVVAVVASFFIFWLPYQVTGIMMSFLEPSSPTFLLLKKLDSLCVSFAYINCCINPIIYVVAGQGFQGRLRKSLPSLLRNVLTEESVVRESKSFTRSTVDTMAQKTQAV

B1: Fck-[Phe-Orn-Pro-cha-Trp-Nle] (peptide)
peptide: Fck-F[Orn]P[dCha]W[Nle]
modifications: bridge (positions not given here); not fully specified; printed as Fck-[Phe-Orn-Pro-cha-Trp-Nle]; also: cyclic [1-6], linkage not given here
B2: H-Amf-[Orn-Aze-hle-Pff-Nle] (peptide)
peptide: H-[αMeF][Orn][Aze][d(hLeu)][Phe(F5)][Nle]
modifications: lactam 2-C
SMILES: CCCC[C@@H]1NC(=O)[C@H](Cc2c(F)c(F)c(F)c(F)c2F)NC(=O)[C@@H](CCC(C)C)NC(=O)[C@@H]2CCN2C(=O)[C@@H](NC(=O)[C@@](C)(N)Cc2ccccc2)CCCNC1=O
B3: Ac-Phe-[Orn-Pro-cha-Trp-Hci] (peptide)
peptide: Ac-F[Orn]P[dCha]W[hCit]
modifications: lactam (positions not given here); not fully specified (bridges); printed as Ac-Phe-[Orn-Pro-cha-Trp-Hci]
B4: Ac-Phe-[Orn-Pro-cha-Trp-Ecf] (peptide)
peptide: Ac-F[Orn]P[dCha]W[Ecf]
modifications: lactam (positions not given here); not fully specified (bridges); printed as Ac-Phe-[Orn-Pro-cha-Trp-Ecf]
B5: H-Phe-[Orn-Ser-cha-Trp-Phe] (peptide)
peptide: H-F[Orn]S[dCha]WF
modifications: lactam 2-C
SMILES: N[C@@H](Cc1ccccc1)C(=O)N[C@H]1CCCNC(=O)[C@H](Cc2ccccc2)NC(=O)[C@H](Cc2c[nH]c3ccccc23)NC(=O)[C@@H](CC2CCCCC2)NC(=O)[C@H](CO)NC1=O
B6: Ac-Phe-[Orn-Pro-cha-Trp-Ebo] (peptide)
peptide: Ac-F[Orn]P[dCha]W[Ebo]
modifications: lactam (positions not given here); not fully specified (bridges); printed as Ac-Phe-[Orn-Pro-cha-Trp-Ebo]

Starred links: 1 amine or outer side, 2 acyl side, 3 side chain; linkers in the order of their positions; H or OH if unused. Positions of bridges follow the written chain, without caps; N, C: chain ends. Non-standard residues stand in square brackets, D forms with d. No end group written: not given here. *: point of attachment. Fck = HO-CH2-(CHOH)4-C=N-O-CH2-CO- (oxime-linked sugar acyl cap); Ebo = Cys(4-picolyl), O=C([C@H](CSCc1ccncc1)N[*:1])[*:2]; Phe(F5) = N[C@@H](Cc1c(F)c(F)c(F)c(F)c1F)C(=O)O; Fbo = morpholine-4-carbonyl, O=C(N1CCOCC1)*; 2Nal = N[C@@H](Cc1ccc2ccccc2c1)C(=O)O; d(hLeu) = CC(C)CC[C@@H](N)C(=O)O; hCit = NC(=O)NCCCC[C@H](N)C(=O)O; αMeF = C[C@](N)(Cc1ccccc1)C(=O)O; dCha = N[C@H](CC1CCCCC1)C(=O)O; Nle = CCCC[C@H](N)C(=O)O; Orn = NCCC[C@H](N)C(=O)O; Aze = O=C(O)[C@@H]1CCN1; Ecf = Cys(O-3-picolyl); Fbn = not defined here A value given as a limit tells only on which side of the number the result lay.

The first assay concerns the target T1, human C5aR (CD88). Briefly: cell-based or functional assay.
On to FXPXWX (not fully specified; Ac-; Orn2; cha4 (D); Eew6; cyclic [2-6]) [Ac-Phe-[Orn-Pro-cha-Trp-Eew]], for which the “IC50 activity group, enzyme release assay” value (“IC50 activity group” for short) is not above 2000 nM.
Turning to H-F[Orn]P[d(hLeu)]W[Nle] (lactam 2-C) [H-Phe-[Orn-Pro-hle-Trp-Nle]], the “IC50 activity group” value was not above 50 nM.
Still for that read-out and setting: for B1 the value was not above 200 nM; for Fbn-F[Orn]P[dCha]W[Nle] (lactam 2-C; reading uncertain; also: printed as Fbn-Phe-[Orn-Pro-cha-Trp-Nle]) [Fbn-Phe-[Orn-Pro-cha-Trp-Nle]], not above 200 nM.
As for B2, the “IC50 activity group” value is not above 200 nM.
For the molecule Fck-F[Orn]P[dCha]W[Nle] (lactam 2-C (inferred)) [Fck-Phe-[Orn-Pro-cha-Trp-Nle]], the “IC50 activity group” value is not above 200 nM.
As to B3, the “IC50 activity group” value was not above 2000 nM.
On the same count and under the same terms, for B4 the value was not above 2000 nM.
Same read-out and setting: for Fbo-F[Orn]P[dCha]W[Nle] (lactam 2-C (inferred)) [Fbo-Phe-[Orn-Pro-cha-Trp-Nle]] the value was not above 200 nM.
Same read-out and setting: for B5 the value was not above 50 nM; for Ac-F[Orn]P[dCha]W[2Nal]-NH2 [Ac-Phe-Orn-Pro-cha-Trp-2Ni-NH2], not above 50 nM; for H-F[Orn]P[dCha]W[Nle] (lactam 2-C) [H-Phe-[Orn-Pro-cha-Trp-Nle]], not above 200 nM.
As to B6, the “IC50 activity group” value was not above 2000 nM.

For a further assay, the target named is T1, human C5aR (CD88). Briefly: cell-based or functional assay. The source holds these as a separate data set.
As to H-Phe-Cit-Pro-hle-Bta-Phe-NH2 (peptide), the IC50 activity group, enzyme release assay was less than 200 nM.
Consider H-Phe-[Lys-Hyp-hle-Pff-Nle] (peptide), for which the IC50 activity group, enzyme release assay is less than 200 nM.
For H-Phe-[Orn-Hyp-cha-Trp-Nle] (peptide), the IC50 activity group, enzyme release assay was less than 50 nM.
Still for that read-out and setting: for H-Phe-[Orn-Hyp-cha-Trp-Phe] (peptide) the value was less than 50 nM; for H-Phe-[Orn-Hyp-hle-Mcf-Leu] (peptide), less than 200 nM; for H-Phe-[Orn-Hyp-hle-Pff-Chg] (peptide), less than 200 nM.
Turning to H-Phe-[Orn-Hyp-hle-Pff-Hle] (peptide), the IC50 activity group, enzyme release assay is less than 200 nM.
The same measure, in the same setting: for H-Phe-[Orn-Hyp-hle-Pff-Leu] (peptide) the value was less than 200 nM; for H-Phe-[Orn-Hyp-hle-Pff-Nle] (peptide), less than 200 nM; for H-Phe-[Orn-Hyp-hle-Pff-Phe] (peptide), less than 200 nM.
Regarding H-Phe-[Orn-Hyp-hle-Trp-Hle] (peptide), the IC50 activity group, enzyme release assay is less than 200 nM.
The same measure, in the same setting: for H-Phe-[Orn-Hyp-hle-Trp-Leu] (peptide) the value was less than 50 nM; for H-Phe-[Orn-Hyp-hle-Trp-Nle] (peptide), less than 50 nM.
Same read-out and setting: for H-Phe-[Orn-Hyp-hle-Trp-Nva] (peptide) the value was less than 200 nM; for H-Phe-[Orn-Hyp-hle-Trp-Phe] (peptide), less than 50 nM.
Still for that read-out and setting: for H-Phe-[Orn-NMS-cha-Trp-Nle] (peptide) the value was less than 200 nM.
H-Phe-[Orn-NMS-hle-Pff-Phe] (peptide): the IC50 activity group, enzyme release assay is less than 200 nM.
The molecule H-Phe-[Orn-Pro-cha-Pff-Nle] (peptide) had an IC50 activity group, enzyme release assay of less than 200 nM.
On to H-Phe-[Orn-Pro-cha-Pff-Phe] (peptide), for which the IC50 activity group, enzyme release assay was less than 200 nM.
Still for that read-out and setting: for H-Phe-[Orn-Pro-hle-Mcf-Phe] (peptide) the value was less than 50 nM; for H-Phe-[Orn-Pro-hle-Ocf-Phe] (peptide), less than 200 nM; for H-Phe-[Orn-Pro-hle-Pff-Nle] (peptide), less than 200 nM.
Molecule H-Phe-[Orn-Pro-hle-Pff-Phe] (peptide) registered an IC50 activity group, enzyme release assay of less than 50 nM.
Consider H-Phe-[Orn-Ser-cha-Trp-Nle] (peptide), for which the EC50, agonistic activity, enzyme release assay is more than 1430 nM and the IC50 activity group, enzyme release assay was less than 50 nM.
Molecule H-Phe-[Orn-Ser-hle-Mcf-Leu] (peptide) yielded an IC50 activity group, enzyme release assay of less than 200 nM.
On the same count and under the same terms, for H-Phe-[Orn-Ser-hle-Ocf-Nle] (peptide) the value was less than 200 nM; for H-Phe-[Orn-Ser-hle-Pff-Leu] (peptide), less than 200 nM; for H-Phe-[Orn-Ser-hle-Pff-Nle] (peptide), less than 50 nM.
The molecule H-Phe-[Orn-Ser-hle-Pff-Phe] (peptide) came in with an IC50 activity group, enzyme release assay of less than 200 nM.
On to H-Phe-[Orn-Ser-hle-Trp-Nle] (peptide), for which the IC50 activity group, enzyme release assay was less than 50 nM.
On the same count and under the same terms, for “Me-O-CO-Phe-Orn-Pro-cha-Bta-Phe-NH2 (peptide)” the value was less than 200 nM.
“hrC5a (from UniProt P01031 678-751) (ligand)” showed an EC50, agonistic activity, enzyme release assay of 2.4 nM.
With “tBu-CO-Phe-Orn-Pro-cha-Bta-Phe-NH2 (peptide)”, the IC50 activity group, enzyme release assay was less than 200 nM.
